Source: patent publication US12006519B2, “Polymerase mutants and use with 3′-OH unblocked reversible terminators” (Agilent Technologies, Inc., priority 2021, dated 2024)

Experiments:
Assay type in all cases: biochemical
Lightning Terminators [1] = test: Plate-based assay, incorporation of Lightning Terminators by control extracts; conditions: control extracts, FIG. 6, FIGS. 7A-7B
Protocol: (§1) In this example, additional mutant polymerases were derived from Pfu polymerase. To generate the mutants, eighty-seven codons in the Pfu pol B gene were saturated using the QuikChange Lightning Mutagenesis kit and oligonucleotides containing “NDT” codons to create R, N, D, C, G, H, I, L, F, S, Y, and V substitutions with equal frequency. In some cases, mutants missing from NDT libraries were prepared in a separate QuikChange reaction with an equimolar mixture of mutagenic oligos encoding the remaining mutations (A, T, K, Q, E, P, […], W). Thirty-two clones were randomly selected from each QuikChange library (with the exception of T267, Y403, Y410, I475, G499 and K675 libraries which generated fewer transformants). Bacterial lysates were prepared and screened for incorporation of LTA and LTC using a plate-based assay with immobilized primer-templates. A limited number of mutants were also screened for utilization of LTG and LTU (similar trends; data not shown). After washing and UV cleavage (to minimize dye quenching effects), plates were read and fluorescent signals compared to Pfu controls. The following table identifies four mutant Pfu polymerases that served as controls, which were given the arbitrary names Pfu5, Pfu1, and Pfu2, along with Pfu10 (which is discussed above).
Selected lysates, based on screening results, were submitted for sequencing, and an amino acid identification was made based on the selections. […] As shown in Example 3, K477W benefits sequencing by increasing the fraction of full-length reads.

Lightning Terminators [2] = test: Sequencing-by-synthesis with Lightning Terminators (87 cycles); parameters: ARL (87 cycles) / Lead + Lag / Leading / Lagging: unit not given here
Protocol: This section generally describes how the present mutant polymerases were used for sequencing-by-synthesis, and how their performance in sequencing was measured. Sequencing was performed on a breadboard instrument, essentially as described in Hertzog D, et al., “A high-performance, low-cost approach to next-generation sequencing”, BioOptics World. 2011 Issue November/December 2011.
In this example, mutations were introduced into the DNA polymerase of SEQ ID NO: 12 (Therminator) in an attempt to improve its capability in sequencing with 3′-OH unblocked terminators. Such mutations to Thermococcus sp. 9° N DNA polymerase are disclosed in U.S. Pat. Nos. 9,273,352; 9,677,059; 9,765,309; U.S. Pat. App. Publication No. 20160032377. The following table summarizes sequencing metrics with Lightning Terminators.
As used in this example and those that follow, “Lead+Lag” refers to dephasing errors in Sequencing by Synthesis technology caused by either reading the next base signal (Lead) or reading the previous base signal (Lag) relative to current base signals. Such errors may arise because of imperfect incoporation of reversible terminators by the polymerase.
In this example, mutant polymerases were created by introducing certain mutations (D141A/E143A/A485L) which are present in Therminator. The three mutations were introduced at the equivalent positions in JDF3 (Thermococcus sp. JDF3) and Pfu (Pyrococcus furisosus) DNA polymerases. The new mutant polymerases were then evaluated for their performance in sequencing with Lightning Terminators, as described above.

LTC = test: Plate-based assay with immobilized primer-templates, incorporation of LTC; conditions: FIG. 6
Protocol: as §1

[3] = system: Lightning Terminator-A (LTA); test: Plate-based single-base extension assay, incorporation of LTA
Description: This example used saturation mutagenesis at positions 486 and 494 in Pfu D141A/E143A to create additional mutant polymerases. Bacterial extracts were screened in a plate-based single-base extension assay employing Lightning Terminator-A (LTA). Positive clones producing the highest fluorescent signals were sequenced to identify the amino acid replacement. […] Selected lysates, based on screening results, were submitted for sequencing, and an amino acid identification was made based on the selections.
FIG. 3 illustrates the saturation of position 486 in a Pfu polymerase. The QuikChange kit was used with degenerate NDT codon primers to create a library of Pfu A486 mutants. A NDT codon comprises an A, C, G, or T at the first position, an A, G, or T at the second position, and a T at the third position, thereby introducing variability into the primer. The 12 possible NDT codons represent 12 amino acids (Phe, Leu, Ile, Val, Tyr, His, Asn, Asp, Cys, Arg, Ser, and Gly). Heat-clarified extracts were prepared from 32 randomly selected colonies. Extracts were screened for incorporation of LTA in a microtiter plate assay employing an immobilized dsDNA substrate. […]
In this example, additional mutant polymerases were derived from Pfu polymerase. […] After washing and UV cleavage (to minimize dye quenching effects), plates were read and fluorescent signals compared to Pfu controls. […]

[4] = alternative polymerases (D141A/E143A), same protein concentrations (0.02 ug/uL in cycle 1 and 0.002 ug/uL in cycles 2-n)

Row | Molecule | Utilization of Lightning Terminators (in words) (Lightning Terminators [1]) | Sequencing performance with Lightning Terminators (in words) (Lightning Terminators [2]) | % reads >85 (Lightning Terminators [2]; [4]) [%] | ARL (87 cycles) (Lightning Terminators [2]; [4]) | Lead + Lag (Lightning Terminators [2]; [4]) | Incorporation of LTC (in words) (LTC) | Incorporation of Lightning Terminators (in words) ([3]; Example 5, saturation mutagenesis in Pfu D141A/E143A, bacterial extracts, LTA) | Incorporation signals compared to the Pfu A486L control (Pfu10) ([3]; Example 6, LTA and/or LTC)
1 | Pfu2: Pfu DNA polymerase with D141A/E143A/A486L/Y546H (protein, UniProt P61875 1-775, looked up, variant D141A E143A A486L Y546H) DNA polymerase: MILDVDYITEEGKPVIRLFKKENGKFKIEHDRTFRPYIYALLRDDSKIEEVKKITGERHGKIVRIVDVEKVEKKFLGKPITVWKLYLEHPQDVPTIREKVREHPAVVDIFEYDIPFAKRYLIDKGLIPMEGEEELKILAFAIATLYHEGEEFGKGPIIMISYADENEAKVITWKNIDLPYVEVVSSEREMIKRFLRIIREKDPDIIVTYNGDSFDFPYLAKRAEKLGIKLTIGRDGSEPKMQRIGDMTAVEVKGRIHFDLYHVITRTINLPTYTLEAVYEAIFGKPKEKVYADEIAKAWESGENLERVAKYSMEDAKATYELGKEFLPMEIQLSRLVGQPLWDVSRSSTGNLVEWFLLRKAYERNEVAPNKPSEEEYQRRLRESYTGGFVKEPEKGLWENIVYLDFRALYPSIIITHNVSPDTLNLEGCKNYDIAPQVGHKFCKDIPGFIPSLLGHLLEERQKIKTKMKETQDPIEKILLDYRQKLIKLLANSFYGYYGYAKARWYCKECAESVTAWGRKYIELVWKELEEKFGFKVLYIDTDGLHATIPGGESEEIKKKALEFVKYINSKLPGLLELEYEGFYKRGFFVTKKRYAVIDEEGKVITRGLEIVRRDWSEIAKETQARVLETILKHGDVEEAVRIVKEVIQKLANYEIPPEKLAIYEQITRPLHEYKAIGPHVAVAKKLAAKGVKIKPGMVIGYIVLRGDGPISNRAILAEEYDPKKHKYDAEYYIENQVLPAVLRILEGFGYRKEDLRYQKTRQVGLTSWLNIKKS | could utilize Lightning Terminators | nearly identical to Therminator | 49.7 | 75.3 | 1.3 | maximize incorporation of LTC | – | –
2 | A486R: Pfu D141A/E143A with A486R (protein, Mutant of Pyrococcus furiosus Polymerase) MILDVDYITEEGKPVIRLFKKENGKFKIEHDRTFRPYIYALLRDDSKIEEVKKITGERHGKIVRIVDVEKVEKKFLGKPITVWKLYLEHPQDVPTIREKVREHPAVVDIFEYDIPFAKRYLIDKGLIPMEGEEELKILAFAIATLYHEGEEFGKGPIIMISYADENEAKVITWKNIDLPYVEVVSSEREMIKRFLRIIREKDPDIIVTYNGDSFDFPYLAKRAEKLGIKLTIGRDGSEPKMQRIGDMTAVEVKGRIHFDLYHVITRTINLPTYTLEAVYEAIFGKPKEKVYADEIAKAWESGENLERVAKYSMEDAKATYELGKEFLPMEIQLSRLVGQPLWDVSRSSTGNLVEWFLLRKAYERNEVAPNKPSEEEYQRRLRESYTGGFVKEPEKGLWENIVYLDFRAYYPSIIITHNVSPDTLNLEGCKNYDIAPQVGHKFCKDIPGFIPSLLGHLLEERQKIKTKMKETQDPIEWILLDYRQKRIKLLANSFYGYYGYAKARWYCKECAESVTAWGRKYIELVWKELEEKFGFKVLYIDTDGLHATIPGGESEEIKKKALEFVKYINSKLPGLLELEYEGFYKRGFFVTKKRYAVIDEEGKVITRGLEIVRRDWSEIAKETQARVLETILKHGDVEEAVRIVKEVIQKLANYEIPPEKLAIYEQITRPLHEYKAIGPHVAVAKKLAAKGVKIKPGMVIGYIVLRGDGPISNRAILAEEYDPKKHKYDAEYYIENQVLPAVLRILEGFGYRKEDLRYQKTRQVGLTSWLNIKKS | – | – | – | – | – | – | improve incorporation of Lightning Terminators | superior incorporation signals
